Values quoted from earlier work, collected in paper PMC4332414.

Molecular target: Collagen type II (UniProt P02458)
Assay: surface plasmon resonance

Sequence of Collagen type II (P02458 182-1241): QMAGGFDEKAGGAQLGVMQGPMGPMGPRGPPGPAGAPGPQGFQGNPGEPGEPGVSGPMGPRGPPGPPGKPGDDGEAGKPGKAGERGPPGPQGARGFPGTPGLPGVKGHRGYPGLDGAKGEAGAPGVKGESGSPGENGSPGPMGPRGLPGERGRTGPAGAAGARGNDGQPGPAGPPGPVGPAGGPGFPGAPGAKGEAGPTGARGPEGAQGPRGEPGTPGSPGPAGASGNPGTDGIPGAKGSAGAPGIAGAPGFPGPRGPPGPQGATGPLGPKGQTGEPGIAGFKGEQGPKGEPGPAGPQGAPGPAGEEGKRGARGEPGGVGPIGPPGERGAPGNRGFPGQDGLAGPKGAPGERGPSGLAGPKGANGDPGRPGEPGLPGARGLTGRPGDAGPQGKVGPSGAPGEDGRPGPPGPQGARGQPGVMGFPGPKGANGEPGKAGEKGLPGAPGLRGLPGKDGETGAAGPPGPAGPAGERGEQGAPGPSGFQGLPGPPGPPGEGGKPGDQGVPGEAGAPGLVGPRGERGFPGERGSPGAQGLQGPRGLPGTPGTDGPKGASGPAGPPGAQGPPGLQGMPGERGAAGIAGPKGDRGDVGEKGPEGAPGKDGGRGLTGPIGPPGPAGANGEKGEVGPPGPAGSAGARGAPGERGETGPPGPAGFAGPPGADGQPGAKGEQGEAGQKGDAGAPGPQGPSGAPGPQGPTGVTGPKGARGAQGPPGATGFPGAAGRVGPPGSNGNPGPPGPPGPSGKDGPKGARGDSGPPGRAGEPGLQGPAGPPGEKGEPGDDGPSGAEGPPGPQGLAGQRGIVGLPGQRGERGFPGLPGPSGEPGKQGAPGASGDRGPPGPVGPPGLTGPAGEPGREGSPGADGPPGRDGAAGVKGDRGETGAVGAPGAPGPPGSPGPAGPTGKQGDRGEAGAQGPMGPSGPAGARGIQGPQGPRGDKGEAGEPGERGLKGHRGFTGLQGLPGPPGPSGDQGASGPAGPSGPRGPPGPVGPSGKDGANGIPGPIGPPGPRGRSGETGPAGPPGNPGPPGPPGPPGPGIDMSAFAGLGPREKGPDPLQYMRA
Sequence of DDR2 DS domain (Q16832 30-185): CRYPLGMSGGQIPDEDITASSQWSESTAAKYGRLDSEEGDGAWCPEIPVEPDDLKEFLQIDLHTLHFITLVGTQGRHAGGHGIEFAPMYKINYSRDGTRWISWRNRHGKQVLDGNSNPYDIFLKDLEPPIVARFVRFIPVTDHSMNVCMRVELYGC

- Kd: 25 µM
Substance: DDR2 DS domain (from UniProt Q16832)
